Assay: label from the status in PepcDB records

Sequence | protein production
MKIRTTLTLQYAGITAAVFFAFVIAVYYVSEHSRSNAFFRNLQSEAITKAHLFLNNQVDAKTMQSIYLNNQKFINEVEVAVYTTDFKILYHDALQNDIVKETPEMVKRILKRKNISFYVDEYQAIGLVYPFEGQYYIVTAAAYDGYGYANRDALRNMLILLFIGGLSVLAIVGYILSRSTLKPIRNIVREAEKITASHIDKRLPVKNEQDELGELSITFNALLERLEKSFNSQKMFVSNVSHELRTPMAALTAELDLALLKERTSGQYQAAIGNALQDSRRIINLIDGLLNLAKADYQSEQITMEEVRLDELLLDARELVLKAHPDYHIELVFEQEAEEDNVLTVIGNSYLLTTAFVNLVENNCKYSSNRTSSVLIAYWEQWAIIRLSDNGVGMSDADKENLFKLFYRGENKNIAPGNGIGMVLTQKIIHLHKGELTVSSHKDEGTTFVVKLPHI | failed
MKIRVDDITDQPKILSFQEPSEAFPSLAELQATGESEFLSPLMVELAVSKEYGHIRVKGSVAVKIRFVCSRCLVPFDADISSAFTMFYSEGSRIDSDEDEIELAEEDLVSVFYEGDEIDFAPEIAEQVIMELPLKPLCGEGCKGLCVTCGADLNEGECGCERTTFNVKFSALKNFKVEKLEHHHHHH | not failed
MKISIITAVYNDPRVERCLDSVASQQGNFEVEHIVVDSESTDDTVDVIEQYENHIDCLISEPDDGMYDAINKGIEAATGDVIGLLNADDYYQDQRVLHDVASQLAETGADACYGDLVYVDADDDVVRYWKSDEYSRYKLYYGWMPPHPTFFVRHEIYERHGGFDLSYEISADYELMIRLLLNTDISVTYLDRVLVRMELGGMSNQSIENMLTVIEDMYRGWKKHNRLGRFVAPFLHPVEKVPQFIRSPPGEKEGTLEHHHHHH | failed
MKITTKGRYGLTITLELAKRIGDGPISLRSIAQDKNLSEHYLEQLIGPLRNAGIVKSIRGAHGGYVLNGDPEKITAGDIIRTLEGPIVLVESMEDEEAAQRELWTRMRNAVRDVLDQTTLSDLLKHSTDSELTDGYMFYI | not failed
MKITVIVPTYRRTKDLTRCLESLEKQSRPADEVLVVVRDTDVETWQFLETIAPHSLPLHTTTVRVPGVVAAMNAGLDIAQGDIIAFTDDDAAPHSNWLAQIETHFLAHEQIAGVGGRDWVYHGDRLEDGTCPVVGQVHWFGRVIGNHHIGIGKPREVDVLKGVNMSFRRSAVHGLRFDQRMLGTGAQVHFEVAFCLALKRAGWKLIYDPQIGVNHYLEHHHHHH | failed
MKKGTVLNSEISSVISRLGHTDTLVVCDAGLPIPNSTARIDMALTQGVPSFMQVVDVVTREMQVEAAILATEIKQQNPQLHETLLTHLEQLQQHQGNTIKISYTTHEQFKKLTADSQAVIRSGECSPYANVILCAGVTF | not failed
MKKIATATIATAGIATFGLAHQDADAAENNNGYNPNDPYSYSYTYTIDQQGNYHYEWQGNWSPSQAQQGGQQNTGNQAVNNTQSNNNYNYNYNNNQSNQNTQSYTANNNAGGGLGASYSTSDRNVKVTTQNAPTTQSTSSNASSSSSSEALAGKSSGGSNLYTAGQCTYYVYDKVGGKIGSTWGNANNWATAAAADGYTVNNTPKAGAVMQTSQGAYGHVAYVESVNDDGSVKVSEMNYNGGPGVVSSRTISAGQAGSYNYIS | failed
MKKIKALALFSGGLDSLLSMKLLIDQGIEVTALHFNIGFGGNKDKREYFENATAQIGAKLLVCDIREQFFNDVLFKPKYGYGKYFNPCIDCHANMFRNAFYKMLELNADFVLSGEVLGQRPKSQRKEALNQVRKLVREVGEEARFDPVLDRTQAGGKKPQFLDELLLRPMSAKLLEPTFMEKKGFVDREKLLDVSGRGRSRQLQMIKDYGLKYYEKPGGGCLLTDIQVSNKIKNLKEYREMVFEDSVIVKNGRYFVLPHNARLVVARNEEENHKLDIQHPLMDKIELLNCKGPLSLVDKNASKEDKELAGRIALGYAKTLKNQAYLIQIGDEKRELYPLDKENAREYLFA | failed
MKKILALILIIYSSSVFSHFSHFEPRIIHLYQDNQDTIILMRMPLPLILLDENWKGIDSKQNIPYTNKVNNSGYLIDPEKITKNLDDFKKSITPGYTIKKNGVVQNYHIESINIFNSDDRKPFSSLKTAEENFTSDVTIRPSATKLFDAGIDIKLRISNTSVINDDISISSILGDKFNAINKLANIINLHRDIANESVTTTLGILDYSSTHLPSMTQQLINGFSDGFIHILIGLDHVLFVLLLFYSAASFLKLLSLATAFTFGHSFSLFFGDNIAIASPIFIPGIELLIALTIAFTAIALLLKKAQHLGTTPLLVIGVIHGFGFSFVFNELEKEGAQTSITNLLSFNFGIEAGQLFIYALAFTMTILIKKQTVLVKKLPYYVSVCALVISAYWVVTRSMPLFDYIVI | failed
MKKILFCLPLLLLALQSCEIEDEYMYDKGLYTIDWDAAADSSSVTLIDRFWNTEENYFNYGNDGSIKDFHYWPQAHAMDVMIDAYNRTGDSKYSDLFDKWYVGIKAKNGGSYWNNFYDDMEWIALTMIRLYEVTDENKYLETSQEMWNEIKTGWNDYAGGGIAWTHDQLWSKNACSNGPAALIAARLYRINGNQEDLDWAVNIYKWERENLFNPATGAIYDNVNGETGELSTLSLSYNQGTFLGAAYELYKITGEESYLKDARKAANFAISNSSMIDTGNNLLRDEGDGDGGLFKGIFMRYYVQLIMEPNLDPIYKKKFITFFNNNAEILWRKGINKLDLLYNTNWAMNNSGNNHLTTQTSGCTLIEAKALFEKSLK | failed
MKKILVHGVKEKTPLGFCDVPRKNLLDFLRDMKSISVPNEPRYKPLRKIHQAASDGDTERLQRMISLGKHSVHDRDFKERTALHFACACGQVEVVSILLRNNCDIDAADMNFITPLMKAVQNWTYECVCILLKHGADPNRKDKNGNTSLHYAVSEDNQTLAKCLLKYSANMEQKNKDGFTPLLLALKENKIEMAKFLVKMGANIHVFDDMRRNTLLYAIRWDSKDMVNLLLDEGIDFFFRDVFGWTALRYAIEGTSKGSREILMNYDEMLRRKNKDGIPEYKFFEDKSLDKHPNNPTSGCTFPKSNENACKFDDELDISKYVLGTCPNNIHGAGEEGDKSETKKAADVQVWTNPTLKSSTKGKVPNLNEVGTMTESHHFIKESDLEIESLVETFSYDNEDKQSMSDDGHFSGTTPKWCQNDTNRKITVQDCMYPNLKSPTEGKIPTRSKAGKMAESAHFIIESDLEIESLEETVSCDSEDKQLLV | failed
MKKIRLSKFIKMIVVILFLISVAASFYFFHVAQVRDDKSFISNGQRKPGNSLYAYDKSFDKLLKQKIEMTNQNIKQVAWYVPAVKKTHKTAVVVHGFANSKENMKAYGWLFHKLGYNVLMPDNIAHGESHGQLIGYGWNDRENIIKWTEMIVDKNPSSQITLFGVSMGGATVMMASGEKLPSQVVNIIEDCGYSSVWDELKFQAKEMYGLPAFPLLYEVSTISKIRAGFSYGQASSVEQLKKNNLPALFIHGDKDNFVPTSMVYDNYKATAGKKELYIVKGAKHAKSFETEPEKYEKRISSFLKKYEK | failed
MKKISVKFNQKQIFFGIIGLLLLGIIGIFAYKLNEYFSEPVIKAKSINLDASPSPKSKIIERLKKDQKIKVLKKNNNTDWWQVEIGSQKGWVASWLIQKKNYNAKNAGRLAEATIVLDPGHGGVDSGTQASNGAMEKTYTLRTALKVYKLLKAKNVHVIMTRHTNKTVALASRPALSNRVKANIYISFHFNSAGEQNAAEGYEVFKYNHNANSFASTIDKQFNNLPLYNRGVSFGNFEVLRDNKRPAILVEMGFMDSDYDFSYIQKSSYQQKVANDVTKSLTSYFN | failed
MKKKFIITFILSLALFAGIFWVANKVLDIMELTSKVEFVGSDLGEGNNIEQRVENELLFLVLGLDSDDFSGATTEQNRTDTMILCKVNFDTGKIDILSIPRDSRVMVNGKLDKINHAHHFGGLKLAMKTTRDFLNLDIDYYVRVNFFSVKDIVDALGGVEVDVPVQVDVAEDNVHLKPGKQVLNGKQALQFARFRAGYKEGDVGRVKAQQILIKALVKELTKAKNIAKIPEILEVVKKTVNTNIPFSTIAKLSLKVNNLSEDKINTQIVPGESAYINNTSYFIPDRSKLNAIVKEMFSDYLLNKSGSSQVDTDKNKNNTNTKNNNNKNNNTNNRNNSNNNKNNNNKNNKNNKNNNR | failed
MKKKILIPVFASVMALSVSSIVNADEVNDSSQNKDDKTNTELNLGEYKEVKYKVAKIKDGVAIKIREEGQVQNIAYSGDEFTVLGTQGEWVKVKVEDGEGWLATRYVDISEGVGYTNADKVNLRKDKSESSEVIEELEKGSSLLVLEDNGDWLKVKDGETEGYVKSSYISDKAPVIEEPQVNPSIDQNVDSTNNNQQNNANTNQQNNNSNVPTANSNAVQAVLNLAYSKQGCPYVWGAEGPNTFDCSGFTQYVYRNAVGKNIPRTSKAQSKYGQTVSKANLQPGDLVFFTTNGSGSVSHVGIYVGGGNMIHSPSTGKTVSVTSINSSYYTARFVTAKRIL | failed
MKKKLGLLAMVVALMAIATGCSETGQPITSKSTGIWNEYFVYPLSQLITYFADLFNSNYGLAIVITTLIIRFALLPLMIKQTKSTKAMQALQPEMVKLKEKYSSKDQATQQKLQQEMMQLYQKNGVNPLAGCLPIFVQMPILFAFYHAIMRTAEIKQHSFLWFDLGHADPFYILPVVAAITTFIQQKLAMAGTAGQNPQMAMMLWLMPIMILIFAINFPAALSLYWVVGNIFGIAQMYFIKGPEIKASKAGKAGGSSK | failed
MKKLAIVIPAYKVDFFETVLFSLAQQTCKDFTVYIGEDCSRDDFKSLIEQYSKQLDIVYRRFEVNFGGHDLVAQWNRCIQLTQNEPWLWLFSDDDIMGPRCVEYFFNTIAIDNGAFDIYHFDVKIVDCENQIVRIPTVYPSVIDSETFYRRKASARLDSFVVEYIFLRDIYNCTGGFQHFDLAWGSDIATWVKIGADKGIKTISGDYVYWRKSKKNITPNMDNKMVLRKLTADIEFTHWINEFFHKSSVYRFTKYAFFRLVVHYSQAISKSQIRLLLDKAVGKNIISFNDAFIINWTYRFIQLAKRVKDVLYFLEHHHHHH | not failed
MKKLDASTAVSLTGMPELERIVESLCTPESYEAVYHQSLHGSPMPSLEALTELMARLRAALFPGYFGASNIVLESMRYHLAANLDSIYRILAEQVRRGGCFACADYATDCQNCESHSQETAMEFMRALPRIRQLLATDVKAAYEGDPAAKSPGETIFCYPSIYAMIHHRIAHELYRLDVPVIPRIISEMAHSRTGIDIHPGATVGEEFFIDHGTGVVIGETCIIGRGCRLYQGVTLGALSFPKDGGGALIKGIPRHPILQDGVTVYAGATILGRVTIGAGAIVGGNVWVTHDVAPGAKVVQQKSSPPAAEDRMVGTKNGTPKA | failed
MKKLIFLTLSIVSFNNYAVDFVYRVDSTPPDVIFRDGFSLLGYNRNFQQFISGRSCSGGSSDSRYIATTSSVNQTYAIARAYYSRSTFKGNLYRYQIRADNNFYSLLPSITYLETQGGHFNAYEKTMMRLQREYVSTLSILPENIQKAVALVYDSATGLVKDGVSTMNASYLGLSTTSNPGVIPFLPEPQTYTQQRIDAFGPLISSCFSIGSVCQSHRGQRADVYNMSFYDARPVIELILSK | failed
MKKLLTKGQIAILVIFSVLIIDQVIKIWIKTHMYWHESIRITDWFYIYFTENNGMAFGMELFGKLFLTTFRIVAVGLIGWYLYKIVKRGLKTGYIICVSLILTGALGNIIDSVFYGVIFNESTHSQIASFMPDGGGYSTWFYGKVVDMFYFPIIDTNWPTWMPFVGGEHFIFFSPIFNFADAAISCGIIALLLFYSKYLNDSYHHSVTKK | failed
MKKLLVIRNDKIGDFMLCFPAFMMLKQSMPNIEITALVPNYTAPLAELCPAIDHLIIDNTDKQDPIAFKQVQQAVQNGQFDAVICFVSSWYNAKLTWQSGIRYRLAPATKLFQFLYNHRLTQRRSQSIKAESEYNLDLARAFLIDHHMMPVEPQLEHHHHHH | not failed
MKKLMITQEAGVATVLIKNPPVNILTIDLINELNAFILSLKDDRETKVVVFKSFHEAFFIAHLDLNVINGTSGGQAASIEFNHMIANIKAMKQLSIAVVDGVARGGGNEFVMACDLAYGTENSAFAQPELYINIPTGGQGAVQFARRLGKGKALQALLTGADFTAQQAETLNIITQFVLKAELDVFLAQLLSVIVGWEIRDIVMYKEIIAASIKDEAVGTELELRYFLERAREEKTQTIIAAFLKHGGQTEREAKDMQGIFVDTAAELSK | failed
